B1: VpreB antibody 5-2D7 (recombinant mouse-human chimeric IgG1/kappa) (antibody, V domains shown)
VH: QVQLQQPGAELVKPGASVKLSCKASGYTFTSYWMQWVKQRPGQGLEWIGEINPSNGRINYNEKFKSKATLTVDISSSTAYMQLSSLTSEDSAVYYCARSGLLDYWGQGTTLTDSS
VL: DVLMTQTPLSLPVSLGDQASISCRSSQSLIHSNGNTYLHWSLQKPGQSPKLLIYKVSNRFSGVPDRFSGSGSGTDFTLKISSVEAEDLGVYFCSQSTYVPLTFGAGTKLELKR
notes: also called mAb 5-2D7
B2: VpreB antibody 5-11D1 (recombinant mouse-human chimeric IgG1/kappa) (antibody, V domains shown)
VH: EVQLEESGPSLVKPSQTLSLTCSVTGDSITSDYWTWIRKFPGNKLEYMGYISYSGRTYYNPSLKSRISITRDTSRNQYYLQLSSVTTEDTATYYCARERYYYGSLDYWGQGTTLTVSS
VL: B1 VL with I30V, S41Y, S82R, S96T, Y98H, L101P, A105G, L111I
notes: also called mAb 5-11D1
B3: VpreB antibody 5-9B12 (recombinant mouse-human chimeric IgG1/kappa) (antibody, V domains shown)
VH: B2 VH with R75K, N76K, S83N
VL: B1 VL with L3V, I30V, S41Y, S82R, S96T, Y98H, L101P, A105G, L111I
notes: also called mAb 5-9B12
B4: VpreB antibody 5-14H5 (recombinant mouse-human chimeric IgG1/kappa) (antibody, V domains shown)
VH: B1 VH with Y32N, Q35N, I74K, D113V
VL: B1 VL with I30V, S41Y, S82R, V99L, K108R
notes: also called mAb 5-14H5
B5: VpreB antibody 5-4A9 (recombinant mouse-human chimeric IgG1/kappa) (antibody, V domains shown)
VH: B1 VH with Q1E, P7S, K19Q, I58N, S66R, I74T, D113V
VL: B1 VL with I30V, S41Y, K79T, S82R
notes: also called mAb 5-4A9
B6: VpreB antibody 5-14A8 (recombinant mouse-human chimeric IgG1/kappa) (antibody, V domains shown)
VH: B2 VH with K44I, Y53S, T57I, R75K
VL: B1 VL with S28G, I30V, S41Y, S82R, S96T, Y98H, L101P, A105G, L111I
notes: also called mAb 5-14A8
B7: lambda-5 antibody 4-5G11 (recombinant mouse-human chimeric IgG1/kappa) (antibody)
heavy: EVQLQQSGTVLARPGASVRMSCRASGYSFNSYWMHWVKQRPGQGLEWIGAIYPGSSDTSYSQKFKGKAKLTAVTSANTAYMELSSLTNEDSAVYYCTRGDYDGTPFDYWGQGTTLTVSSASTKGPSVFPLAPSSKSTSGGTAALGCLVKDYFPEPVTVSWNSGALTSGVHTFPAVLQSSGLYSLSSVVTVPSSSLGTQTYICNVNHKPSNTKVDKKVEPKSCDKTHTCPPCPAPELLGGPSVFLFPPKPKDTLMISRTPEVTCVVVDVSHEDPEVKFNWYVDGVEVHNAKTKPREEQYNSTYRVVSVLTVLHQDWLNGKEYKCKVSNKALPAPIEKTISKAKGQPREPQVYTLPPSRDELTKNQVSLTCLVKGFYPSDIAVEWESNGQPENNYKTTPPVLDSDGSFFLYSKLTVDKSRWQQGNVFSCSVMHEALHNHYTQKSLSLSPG
light: DILMTQSPLTLSVTIGQPASISCKSGQSLLDSDGKTYLNWLLQRPGQSPKRLIYLVSKLHSGVPDRFTGSGSGTDFTLKISRVEAEDLGVYYCWQGTHFPLTFGAGTKLELKRTVAAPSVFIFPPSDEQLKSGTASVVCLLNNFYPREAKVQWKVDNALQSGNSQESVTEQDSKDSTYSLSSTLTLSKADYEKHKVYACEVTHQGLSSPVTKSFNRGEC
notes: also called mAb 4-5G11
B8: lambda-5 antibody 4-9H8 (recombinant mouse-human chimeric IgG1/kappa) (antibody)
heavy: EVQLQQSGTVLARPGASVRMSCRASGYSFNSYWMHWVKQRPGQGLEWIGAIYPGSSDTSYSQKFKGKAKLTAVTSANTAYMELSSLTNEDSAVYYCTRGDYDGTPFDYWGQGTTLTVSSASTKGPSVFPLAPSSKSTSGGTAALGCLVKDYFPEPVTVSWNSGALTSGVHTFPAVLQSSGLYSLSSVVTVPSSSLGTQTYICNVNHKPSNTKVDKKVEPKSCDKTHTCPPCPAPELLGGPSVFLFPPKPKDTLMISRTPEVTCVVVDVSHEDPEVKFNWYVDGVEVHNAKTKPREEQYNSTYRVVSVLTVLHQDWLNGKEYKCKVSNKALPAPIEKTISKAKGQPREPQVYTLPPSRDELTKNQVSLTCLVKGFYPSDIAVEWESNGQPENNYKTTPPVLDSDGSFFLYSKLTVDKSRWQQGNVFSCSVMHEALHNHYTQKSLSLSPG
light: B7 light with L3V
notes: also called mAb 4-9H8
B9: lambda-5 antibody 4-19A9 (recombinant mouse-human chimeric IgG1/kappa) (antibody, V domains shown)
VH: EVQLQQSGTVLARPGASVKMSCKASGYTFTSYWMHWVKQRPGQGLEWIGAIYPGNSDTSYNQKFKGKARLTAVTSASTAYMELSSLTNEDSAVYYCTRADYDGTPFDYWGQGTTLTVSS
VL: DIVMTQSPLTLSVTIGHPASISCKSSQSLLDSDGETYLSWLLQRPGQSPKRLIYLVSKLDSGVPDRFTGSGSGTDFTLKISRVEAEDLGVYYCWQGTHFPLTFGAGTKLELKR
notes: also called mAb 4-19A9
B10: lambda-5 antibody 4-20D2 (recombinant mouse-human chimeric IgG1/kappa) (antibody, V domains shown)
VH: B9 VH with T28S, R69K, A99G
VL: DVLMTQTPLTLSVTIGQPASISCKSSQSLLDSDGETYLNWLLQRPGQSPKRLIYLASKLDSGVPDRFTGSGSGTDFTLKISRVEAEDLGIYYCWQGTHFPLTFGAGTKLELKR
notes: also called mAb 4-20D2
B11: lambda-5 antibody 4-7C1 (recombinant mouse-human chimeric IgG1/kappa) (antibody, V domains shown)
VH: B9 VH with K23R, A24P, G44D, R69K
VL: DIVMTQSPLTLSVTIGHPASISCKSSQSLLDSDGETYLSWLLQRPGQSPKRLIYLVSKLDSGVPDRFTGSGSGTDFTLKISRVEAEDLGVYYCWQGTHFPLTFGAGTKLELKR
notes: also called mAb 4-7C1
B12: lambda-5 antibody 4-17G9 (recombinant mouse-human chimeric IgG1/kappa) (antibody, V domains shown)
VH: B9 VH with K23Q, S31N, K63N, R69E, S77T, N88D
VL: DIVMTQSPLTLSVTIGHPASISCKSSQSLLDSDGETYLSWLLQRPGQSPKRLIYLVSKLDSGVPDRFTGSGSGTDFTLKISRVEAEDLGVYYCWQGTHFPLTFGAGTKVELKR
notes: also called mAb 4-17G9
B13: lambda-5 antibody 4-6D12 (recombinant mouse-human chimeric IgG1/kappa) (antibody, V domains shown)
VH: B9 VH with S31N, R69K, Y95F
VL: B12 VL with V3L, K50E, V109L
notes: also called mAb 4-6D12
B14: lambda-5 antibody 4-18G6 (recombinant mouse-human chimeric IgG1/kappa) (antibody, V domains shown)
VH: B9 VH with S31N, I51V, N61S, K65T, R69K, E82D
VL: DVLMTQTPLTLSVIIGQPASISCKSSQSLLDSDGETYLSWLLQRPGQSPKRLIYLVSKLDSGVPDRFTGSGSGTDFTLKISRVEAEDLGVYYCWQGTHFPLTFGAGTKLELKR
notes: also called mAb 4-18G6
B15: lambda-5 antibody 4-7A6 (recombinant mouse-human chimeric IgG1/kappa) (antibody, V domains shown)
VH: B9 VH with A16T, P53L, S56T, R69K, T78S
VL: B12 VL with I2V, S7N, P8A, K24R, V109L
notes: also called mAb 4-7A6
B16: lambda-5 antibody 4-15E6 (recombinant mouse-human chimeric IgG1/kappa) (antibody, V domains shown)
VH: EVQLEESGAELVRSGASVKLSCTASGFNIKDYYLHWVKQRPEQGLEWIGWIDPENGNTDYAPKFQGKATMTADTSSNTAYLQLSSLTSEDTAVYYCNEGYYDYDTDSAMDYWGQGTSVTVSS
VL: B1 VL with I30V, N33D, N35I, S41Y, S82R, Y98R, L101W, A105G, L111I
notes: also called mAb 4-15E6
B17: lambda-5 antibody 4-12G1 (recombinant mouse-human chimeric IgG1/kappa) (antibody, V domains shown)
VH: B16 VH with N57A, T69S, S88F, T105A
VL: B1 VL with I30V, N33D, N35I, S41Y, S82R, T97A, Y98R, L101W, A105G, L111I
notes: also called mAb 4-12G1

Residue numbers refer to the chain shown, from its start. Some results are limits rather than exact numbers.

As a reminder, the EC50 is the concentration at which the effect is half-maximal.

The target in the first assay is T1, human VpreB (on the pre-BCR-expressing human pre-B cell line NALM-6) (human, UniProt P12018 20-145).
T1 construct: On NALM-6 cells VpreB stands in the pre-BCR together with lambda-5 and the mu heavy chain; also called VPREB1; VpreB subunit of the SLC of human pre-BCR
T1 sequence: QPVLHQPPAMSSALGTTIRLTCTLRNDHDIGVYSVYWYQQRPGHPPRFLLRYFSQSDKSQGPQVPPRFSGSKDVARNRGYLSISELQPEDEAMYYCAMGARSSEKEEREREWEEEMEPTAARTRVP
Put plainly: flow cytometry, saturation binding of recombinant chimeric mAb to NALM-6 cells. For orientation: A flow cytometer gives signals particle by particle.
As to B1, the EC50 was less than 0.4 nM.

Consider B2, for which the EC50 was less than 0.4 nM.

As for B3, the EC50 was less than 0.4 nM.

On to B4, for which the EC50 is less than 0.4 nM.

For B5, the EC50 is less than 0.4 nM.

Take B6: the EC50 is less than 0.4 nM.

The target in the next assay is T2, human lambda-5 (on the pre-BCR-expressing human pre-B cell line NALM-6) (human, UniProt P15814 38-213).
T2 construct: On NALM-6 cells lambda-5 stands in the pre-BCR together with VpreB and the mu heavy chain; also called IGLL1; lambda-5 subunit of the SLC of human pre-BCR
T2 sequence (P15814 38-213 limits assumed): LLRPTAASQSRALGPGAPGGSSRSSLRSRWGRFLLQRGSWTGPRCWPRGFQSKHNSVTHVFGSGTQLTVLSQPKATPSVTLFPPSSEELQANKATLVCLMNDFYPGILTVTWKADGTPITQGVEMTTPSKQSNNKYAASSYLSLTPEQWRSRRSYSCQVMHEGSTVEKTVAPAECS
The assay is described as above.
Turning to B7, the EC50 is less than 30 nM.

Take B8: the EC50 is less than 30 nM.

As for B9, the EC50 was less than 30 nM.

For B10, the EC50 was less than 30 nM.

On to B11, for which the EC50 was less than 30 nM.

As for B12, the EC50 was less than 30 nM.

As for B13, the EC50 is less than 30 nM.

As to B14, the EC50 was less than 30 nM.

On to B15, for which the EC50 was less than 30 nM.

Consider B16, for which the EC50 was less than 30 nM.

Take B17: the EC50 is less than 30 nM.

The target of another assay is T1, human VpreB (on the pre-BCR-expressing …). The assay is described as above. The source holds these as a separate data set. Here is the method: (§1) Avidity of each VpreB antibody was determined by measuring saturation binding kinetics of antibody to NALM-6 cells using flow cytometry as follows. The cells were stained with a 3-fold descending titration of recombinant, chimeric VpreB antibody ranging from 133 nM to 0.002 nM. A PE/Cy5-labeled mouse anti-human IgG1 secondary antibody (Southern Biotech #9042-13) was used to detect cell-bound anti-VpreB or an IgG1 isotype control antibody (PAS-ISO6H4). The 50% effective concentration (EC₅₀) was calculated using GraphPad Prism software. Antibodies 5-4A9, 5-11D1, 5-14A8, and 5-14H5 all bound to VpreB-expressing NALM-6 cells with unusually strong binding avidity (<400 pM; FIG. 13, Table 16).
Take B2: the EC50 turned out to be 0.143 nM.

Consider B4, for which the EC50 turned out to be 0.115 nM.

For B5, the EC50 came to 0.396 nM.

For B6, the EC50 turned out to be 0.227 nM.

The next assay shares this target. Described as above. This is another data set of the same source. Here is the method: as §1
The binding avidity of the VpreB mAbs 5-2D7 and 5-9B12 was also determined by measuring saturation binding kinetics of recombinant, chimeric mAb to NALM-6 cells using flow cytometry as described above. Both mAbs bound to VpreB-expressing NALM-6 cells with unusually strong avidity (<400 pM; FIG. 15, Table 17).
Consider B1, for which the EC50 came out at 0.34 nM.

With B3, the EC50 stood at 0.12 nM.

The target in a further assay is T2, human lambda-5 (on the …). The assay is described as above. The source holds these as a separate data set. Here is the method:
as §1
The avidity of each lambda-5 antibody was determined by measuring saturation binding kinetics of recombinant, chimeric mAb to NALM-6 cells using flow cytometry as described for the VpreB antibody saturation binding kinetics experiment. Antibodies 4-6D12, 4-5G11, 4-7A6, 4-7C1, 4-9H8, 4-12G1, 4-15E6, 4-17G9, 4-18G6, 4-19A9, and 4-20D2 all bound to VpreB- expressing NALM-6 cells with strong avidity (<30 nM; FIG. 16, Table 18).
Take B7: the EC50 worked out at 6.2 nM.

In the case of B8, the EC50 worked out at 7.4 nM.

Take B9: the EC50 was determined as 8.1 nM.

As to B10, the EC50 turned out to be 26.3 nM.

In the case of B11, the EC50 amounted to 8.4 nM.

For B12, the EC50 was 9 nM.

In the case of B13, the EC50 was 1.9 nM.

With B14, the EC50 came out at 10.2 nM.

Regarding B15, the EC50 worked out at 2.3 nM.

Take B16: the EC50 worked out at 3.7 nM.

Consider B17, for which the EC50 worked out at 4.5 nM.

For the origin of these results see patent US20220265821A1 (PASCAL BIOSCIENCES, published 2022).
